Data set [1] in a line: folding stability dG unfold from chymotrypsin proteolysis; higher = more stable. An outline of the steps: (§1)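 K50 was inferred by Bayesian fitting of sequencing counts obtained after protease digestion of designed mini-proteins. Unfolding free energy was derived by comparison with a sequence-predicted unfolded-state K50 and a shared folded-state K50, for each protease or both combined. The mini-proteins were under 80 residues, had no cysteine, were carried in a PA-tagged cDNA display construct, and were kept only if AlphaFold2 dimer inter-PAE exceeded 15.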

The nature of data set [2]: folding stability dG unfold (combined trypsin and chymotrypsin); higher = more stable. An outline of the steps: as §1
Data set [3] can be described thus: folding stability dG unfold from trypsin proteolysis; higher = more stable. An outline of the steps: as §1

± gives the half width of the 95% confidence interval.

For “SAGGSAGGSAPGSMLRIPVSEEELKKKGLTPEELAKEIRERYPELPESVVVEFPPDGNIVIVESAGGSAGGS [r12_50_JUSTAS]”, the “folding stability dG unfold” value was 0.885 ± 0.056 kcal/mol in data set [1], 1 ± 0.16 kcal/mol in data set [2] and 0.906 ± 0.05 kcal/mol in data set [3].
“SAGGSAGGSAPKILIVEDEKTGKLYAFVYDKDTKELYVAEFTYDKKTKKLTVKIKKVSLEDLSAGGSAGGSA [r18_505_TrROS_Hall]”: the entries for the “folding stability dG unfold” value in data set [1], in data set [2] and in data set [3] were 4.67 ± 0.18 kcal/mol, 4.19 ± 0.26 kcal/mol and 2.88 ± 0.09 kcal/mol, respectively.
Taken in the same sequence, the figures for “SAGGSAGGSAPKPKTKTIMFRFPGTPEDALDIAKEIANYFNDRGLEIEVERHPNGYIMITFPSAGGSAGGSA [r18_262_TrROS]” were 2.82 ± 0.034 kcal/mol, 2.61 ± 0.065 kcal/mol and 2.11 ± 0.059 kcal/mol.
In the case of “SAGGSAGGSAPLRFEFELPGNYRVRIELEPVPDDPSAGPRYRLRIEVFDLETGEVLPFEIDGSAGGSAGGSA [r18_66_TrMRF]”, the “folding stability dG unfold” value is 4.18 ± 0.064 kcal/mol in data set [1], 3.74 ± 0.061 kcal/mol in data set [2] and 2.75 ± 0.065 kcal/mol in data set [3].
Turning to “SAGGSAGGSAPMVLLLEFDSPEEATEAAKKIAEEFEKLGAKVEVEIFKPPEDKYLVLIRIDSAGGSAGGSAG [r3_211_TrMRF]”, the “folding stability dG unfold” value in data set [1] turned out to be 3.91 ± 0.12 kcal/mol; in data set [2], 3.89 ± 0.21 kcal/mol; in data set [3], 3.66 ± 0.38 kcal/mol.
In the case of “SAGGSAGGSAPNYIKIRIKFQSDGKRHSMEIFIPDNPKKAKQIAKEMANMGGIEDVEVERYSAGGSAGGSAG [r3_310_TrROS]”, the entries for the “folding stability dG unfold” value in data set [1], in data set [2] and in data set [3] were 0.659 ± 0.13 kcal/mol, 0.667 ± 0.16 kcal/mol and 0.515 ± 0.13 kcal/mol, respectively.
Turning to “SAGGSAGGSAPPLDRVFVEVRVEPGEDAGVVVTHPDGRVLTAPADADVVFEFHPDVPVLVADASAGGSAGGS [r12_553_TrMRF]”, the results for the “folding stability dG unfold” value in data set [1], in data set [2] and in data set [3] were 0.129 ± 0.12 kcal/mol, -0.201 ± 0.18 kcal/mol and -1.27 ± 0.49 kcal/mol, respectively.
As for “SAGGSAGGSAPPPPPPVYRIPIEITEIDPNGKITVTLPDLGEEITFPAPNVEVIPGDEFYIPSAGGSAGGSA [r18_89_TrROS]”, the “folding stability dG unfold” value came to 1.67 ± 0.045 kcal/mol in data set [1], 1.86 ± 0.16 kcal/mol in data set [2] and 1.95 ± 0.11 kcal/mol in data set [3].
The like results for “SAGGSAGGSAPPVKTITVELVFFNPETQEVFVLRAEVRLLPDGTLEIRTEIERVKVEPGAVLLSAGGSAGGS [r12_116_TrROS_Hall]” were, in that order, 2.22 ± 0.11 kcal/mol, 2.09 ± 0.15 kcal/mol and 1.64 ± 0.096 kcal/mol.
With “SAGGSAGGSAPSKKVKFKVLAKNTKTGKYKEIDITAEVPVSNGKVVSIEELLKKFPDFELKPSAGGSAGGSA [r18_267_TrMRF]”, the “folding stability dG unfold” value in data set [1] stood at 0.0845 ± 0.38 kcal/mol; in data set [2], 0.172 ± 0.21 kcal/mol; in data set [3], 0.342 ± 0.11 kcal/mol.
Turning to “SAGGSAGGSAPTLELTVTLPDGLRVTVRYDLETDEVTIEVRPLPAPPPPELSEEERKKLAEESAGGSAGGSA [r18_236_TrROS_Hall]”, the “folding stability dG unfold” value in data set [1] is 2.25 ± 0.2 kcal/mol; in data set [2], 1.98 ± 0.12 kcal/mol; in data set [3] it was 1.24 ± 0.056 kcal/mol.
In the case of “SAGGSAGGSAPTSSVVTFPYESPEEARERARELAEEERARRGVRFRVEYDPATGTVTLTAVESAGGSAGGSA [r18_368_JUSTAS]”, the “folding stability dG unfold” value in data set [1] amounted to 0.926 ± 0.12 kcal/mol; in data set [2], 0.859 ± 0.13 kcal/mol; in data set [3] it was 0.673 ± 0.064 kcal/mol.
Regarding “SAGGSAGGSAPWLTIIFRMDTPEMAKEIANWLREDGLDIEVETEPDPNDGRFWVMITIQLPNSAGGSAGGSA [r18_455_TrROS]”, the figures for the “folding stability dG unfold” value in data set [1], in data set [2] and in data set [3] were 4.24 ± 0.07 kcal/mol, 3.96 ± 0.17 kcal/mol and 3.57 ± 0.16 kcal/mol, respectively.
Turning to “SAGGSAGGSAPWYIAIYMPGNGRKRTYPFKSADDIKEEIKEHLGPGMNPDNVEIKIIPPDDISAGGSAGGSA [r18_350_TrROS]”, the results for the “folding stability dG unfold” value in data set [1], in data set [2] and in data set [3] were -0.782 ± 0.81 kcal/mol, -0.0945 ± 0.38 kcal/mol and 0.279 ± 0.14 kcal/mol, respectively.
As for “SAGGSAGGSARVFIVITYQNPGDGKPRQITIPIDIKDGKITLDDLKELFPGYPITNISIFPLSAGGSAGGSA [r18_494_TrROS]”, the “folding stability dG unfold” value in data set [1] turned out to be 3.58 ± 0.12 kcal/mol; in data set [2], 3.65 ± 0.13 kcal/mol; in data set [3], 3.5 ± 0.14 kcal/mol.
Regarding “SAGGSAGGSASAEEIAAKIEALFPVKVTVVREEPTPLGRPEVVIEVDAVGVPEELLEEVLKSAGGSAGGSAG [r3_40_JUSTAS]”, the “folding stability dG unfold” value came out at 0.446 ± 0.033 kcal/mol in data set [1], 0.559 ± 0.064 kcal/mol in data set [2] and 0.68 ± 0.04 kcal/mol in data set [3].
In the case of “SAGGSAGGSASIELPPDATVTLTTLDPATGTVTTTTVKVDSTGTTTLATTTTTVDPASAAAASAGGSAGGSA [r18_248_JUSTAS]”, the results for the “folding stability dG unfold” value in data set [1], in data set [2] and in data set [3] were 1.35 ± 0.028 kcal/mol, 1.41 ± 0.11 kcal/mol and 1.27 ± 0.055 kcal/mol, respectively.
Taken in the same sequence, the figures for “SAGGSAGGSASIGGGPTGHSYKITLPNGTEKFLVMDPSTLKELIEKLGVKEVEVKDIGPLQSAGGSAGGSAG [r3_141_JUSTAS]” were 0.0184 ± 0.27 kcal/mol, 0.482 ± 0.15 kcal/mol and 0.842 ± 0.077 kcal/mol.
On to “SAGGSAGGSASITLTLGDTPLEVSTDPSTNTYTFTYPAPGLVLTLDVSTGKLSARPLAELASAGGSAGGSAG [r3_137_JUSTAS]”, for which the “folding stability dG unfold” value was 1.69 ± 0.071 kcal/mol in data set [1], 1.13 ± 0.077 kcal/mol in data set [2] and 0.216 ± 0.11 kcal/mol in data set [3].
As for “SAGGSAGGSASLSPDEEVEITDPANGTKYKVTKLPDGTVLLENPETGETYVRTDSNDWKLTSAGGSAGGSAG [r3_96_JUSTAS]”, the figures for the “folding stability dG unfold” value in data set [1], in data set [2] and in data set [3] were 0.88 ± 0.18 kcal/mol, 0.932 ± 0.15 kcal/mol and 0.88 ± 0.04 kcal/mol, respectively.
Take “SAGGSAGGSASMDTVVEVGPEILSTGLPIEKVTYDPNTGKTYIETPDKLYVIDSDGNITVDASAGGSAGGSA [r18_445_JUSTAS]”: the “folding stability dG unfold” value stood at 1.69 ± 0.025 kcal/mol in data set [1], 1.72 ± 0.057 kcal/mol in data set [2] and 1.72 ± 0.057 kcal/mol in data set [3].
As to “SAGGSAGGSASMGVVDEFVVYVPGEKGEEVEVKVYKDPNSDRYIVEIKGKKIPVTDEKKALLSAGGSAGGSA [r18_67_JUSTAS]”, the “folding stability dG unfold” value was 0.0997 ± 0.33 kcal/mol in data set [1], 0.447 ± 0.26 kcal/mol in data set [2] and 0.41 ± 0.068 kcal/mol in data set [3].
Regarding “SAGGSAGGSASMKEVTILVKKKLPGGEEEESVTTVTLNPNEIDKVKEEFKKKGWEVVKVVSSAGGSAGGSAG [r3_453_JUSTAS]”, the “folding stability dG unfold” value in data set [1] came to 1.74 ± 0.034 kcal/mol; in data set [2], 1.56 ± 0.045 kcal/mol; in data set [3], 1.23 ± 0.017 kcal/mol.
As to “SAGGSAGGSASMKVLEFPPDASIEEILEKIEKELGLSKEEIKNIKIEKIDDEEGSYKVIIESAGGSAGGSAG [r3_26_JUSTAS]”, the “folding stability dG unfold” value was found to be 2.62 ± 0.054 kcal/mol in data set [1], 2.59 ± 0.07 kcal/mol in data set [2] and 2.42 ± 0.062 kcal/mol in data set [3].
With “SAGGSAGGSASMNVLVVRTKPDGTPEVTEVETGDPEKAKEEIAKRSNVTTPEGTVTVELTGVSAGGSAGGSA [r18_457_JUSTAS]”, the entries for the “folding stability dG unfold” value in data set [1], in data set [2] and in data set [3] were -1.06 ± 0.27 kcal/mol, -0.961 ± 0.46 kcal/mol and -1.02 ± 0.13 kcal/mol, respectively.
“SAGGSAGGSASMSYITKVEYKESPEGKLITTTTTTDPTSPNDVKTTTTVTPLPPLNPSPELKSAGGSAGGSA [r18_409_JUSTAS]”: the “folding stability dG unfold” value is -0.829 ± 0.73 kcal/mol in data set [1], -0.525 ± 0.29 kcal/mol in data set [2] and -0.309 ± 0.085 kcal/mol in data set [3].
For “SAGGSAGGSASMTVVVEREEITRRDPSSDELFEEEVVRATTTEKDGVIETTTLPEEEWEKLSSAGGSAGGSA [r18_406_JUSTAS]”, the “folding stability dG unfold” value in data set [1] is -0.521 ± 0.2 kcal/mol; in data set [2], -0.0202 ± 0.32 kcal/mol; in data set [3], 0.348 ± 0.056 kcal/mol.
With “SAGGSAGGSASPQVVEVLSTVPLPGSNIVIEKTSDASGNSYVYDPNTGKWFSPEEAKKLLSSAGGSAGGSAG [r3_206_JUSTAS]”, the “folding stability dG unfold” value in data set [1] was 1.73 ± 0.077 kcal/mol; in data set [2], 1.5 ± 0.1 kcal/mol; in data set [3], 0.84 ± 0.057 kcal/mol.
As for “SAGGSAGGSASSSTFPRRNYTVTITTDPSNGKKTVTVLNPATGEATTLTPEELEADPVLAEAVSAGGSAGGS [r12_817_JUSTAS]”, the entries for the “folding stability dG unfold” value in data set [1], in data set [2] and in data set [3] were 1.8 ± 0.021 kcal/mol, 1.51 ± 0.043 kcal/mol and 1.05 ± 0.017 kcal/mol, respectively.
Take “SAGGSAGGSASSVPARLPDATVLEVTTDPATGLQTALLRFPDGSEVVVTHYPDGSVEVRPLSAGGSAGGSAG [r3_348_JUSTAS]”: the “folding stability dG unfold” value in data set [1] was found to be 2.67 ± 0.028 kcal/mol; in data set [2] it was 2.47 ± 0.099 kcal/mol; in data set [3], 1.84 ± 0.062 kcal/mol.
Turning to “SAGGSAGGSASSVVTPISHPDGRTGTKVTLPNGTVIEFIFYPDGTIIEINHSNNTTTVTPLVSAGGSAGGSA [r18_285_JUSTAS]”, the entries for the “folding stability dG unfold” value in data set [1], in data set [2] and in data set [3] were 1.55 ± 0.017 kcal/mol, 1.53 ± 0.031 kcal/mol and 1.44 ± 0.04 kcal/mol, respectively.
Regarding “SAGGSAGGSASTTVTYVEIKVTNPNPPGTPVAEYLIPLSEITEEMIEKLEKEGGLKVEVTVVLSAGGSAGGS [r12_398_JUSTAS]”, the “folding stability dG unfold” value worked out at 1.44 ± 0.033 kcal/mol in data set [1], 1.41 ± 0.058 kcal/mol in data set [2] and 1.2 ± 0.12 kcal/mol in data set [3].
As to “SAGGSAGGSASVKELAEKLAEPGQTVMVIKRDGKEYLIVMSDEEAEALRKLFPDMEIERVRLSAGGSAGGSA [r18_198_TrROS_Hall]”, the “folding stability dG unfold” value in data set [1] worked out at 1.93 ± 0.023 kcal/mol; in data set [2], 1.81 ± 0.062 kcal/mol; in data set [3] it was 1.59 ± 0.02 kcal/mol.
The like results for “SAGGSAGGSASVTVSPTPDDTWRVEVTETRYFFDPDGRPIGPVTITSSRVVSSEEEAAALLSAGGSAGGSAG [r3_232_JUSTAS]” were, in that order, 0.397 ± 0.15 kcal/mol, 0.49 ± 0.15 kcal/mol and 0.537 ± 0.038 kcal/mol.
On to “SAGGSAGGSASVTVVPSPGPTTTVVTFSPDDTVTVTTHTVDPSAATSTPTTTTVSLSDPAAASAGGSAGGSA [r18_503_JUSTAS]”, for which the entries for the “folding stability dG unfold” value in data set [1], in data set [2] and in data set [3] were 1.44 ± 0.015 kcal/mol, 1.73 ± 0.03 kcal/mol and 2.08 ± 0.044 kcal/mol, respectively.
On to “SAGGSAGGSASWITITGLLPGGRLVTTRYDPSTGSVSTETTPIPPVPAFPLGPENLALNFLLSAGGSAGGSA [r18_236_JUSTAS]”, for which the “folding stability dG unfold” value in data set [1] was 0.528 ± 0.19 kcal/mol; in data set [2], 0.746 ± 0.13 kcal/mol; in data set [3], 0.706 ± 0.044 kcal/mol.

The values are drawn from the supplement of paper PMC12764529.
